{"source": "paper PMC6956557", "about": "“Preclinical development of a novel CD47 nanobody with less toxicity and enhanced anti-cancer therapeutic potential” (Journal of Nanobiotechnology, 2020)", "key": {"hCD47 (ECD)-Fc": {"target": "T1, hCD47 (ECD)-Fc (Homo sapiens, UniProt Q08722)", "T1 construct": "human CD47 ectodomain (ECD), residues 20-136; Cloned into a pFUSE vector; also called human CD47 (ECD)-Fc; recombinant hCD47 antigen", "T1 sequence (Q08722 20-136)": "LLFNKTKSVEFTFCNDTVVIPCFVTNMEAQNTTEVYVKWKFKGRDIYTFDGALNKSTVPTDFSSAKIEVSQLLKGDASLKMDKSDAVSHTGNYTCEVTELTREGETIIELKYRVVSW", "assay": "ELISA; 5 μg/mL CD47 (ECD)-Fc proteins coated overnight at 4 °C, 1% BSA block, 10 μg/mL Nb for 1 h at room temperature; mouse anti-HA and anti-mouse IgG-alkaline phosphatase, A405", "details": "both partners purified"}, "mouse CD47 (ECD)-Fc": {"target": "T2, mouse CD47 (ECD)-Fc (Mus musculus, UniProt Q61735)", "T2 construct": "mouse CD47 ectodomain (ECD); source: HEK-293F, purified", "assay": "ELISA; 5 μg/mL CD47 (ECD)-Fc proteins coated overnight at 4 °C, 1% BSA block, 10 μg/mL Nb for 1 h at room temperature; mouse anti-HA and anti-mouse IgG-alkaline phosphatase, A405", "details": "both partners purified"}, "rat CD47 (ECD)-Fc": {"target": "T3, rat CD47 (ECD)-Fc (Rattus norvegicus, UniProt P97829)", "T3 construct": "rat CD47 ectodomain (ECD); source: HEK-293F, purified", "assay": "ELISA; 5 μg/mL CD47 (ECD)-Fc proteins coated overnight at 4 °C, 1% BSA block, 10 μg/mL Nb for 1 h at room temperature; mouse anti-HA and anti-mouse IgG-alkaline phosphatase, A405", "details": "both partners purified"}, "[1]": {"target": "T4, human CD47 on the surface of cells (human (endogenous in Raji), UniProt Q08722)", "T4 construct": "human CD47 (integrin-associated protein) on the cell surface; also called hCD47; CD47 expressed on Raji cells; source: endogenous, on Raji cells; endogenous, on human RBCs of healthy donors", "T4 sequence (Q08722 19-323)": "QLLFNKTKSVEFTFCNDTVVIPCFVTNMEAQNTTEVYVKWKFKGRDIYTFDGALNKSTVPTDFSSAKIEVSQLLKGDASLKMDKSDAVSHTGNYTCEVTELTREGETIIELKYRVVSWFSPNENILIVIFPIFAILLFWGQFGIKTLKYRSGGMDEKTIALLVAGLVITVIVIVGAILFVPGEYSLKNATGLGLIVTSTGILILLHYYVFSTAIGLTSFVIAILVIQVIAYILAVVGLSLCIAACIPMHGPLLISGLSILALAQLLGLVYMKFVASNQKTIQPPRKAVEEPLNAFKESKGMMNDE", "assay": "flow cytometry on cells; competition: Raji cells co-incubated with HuNb1-biotin or Rituximab-biotin and unlabelled antibody; streptavidin-PE", "details": "one partner purified"}}, "data": [{"binder": "HuNb1 (VHH, as the VHH of m1; The nanobody alone as used in the ELISA, detected by an anti-HA antibody; also called CD47 Nb; source: E. coli WK6 (pMECS), purified (Ni-sepharose)) VHH: QVQLQESGGGLVQPGGSLRLSCAASGYAYTSDCMGWFRQTPGKGLEGVALIYTPGNSTNYADSVKGRFTISQDNSKSTVYLQMNSLRAEDTAMYYCAARRGACSLRLPFFYWGQGTLVTVSS", "values": [{"measurement": "binding result", "setting": "hCD47 (ECD)-Fc", "value": "binds"}, {"measurement": "binding result", "setting": "mouse CD47 (ECD)-Fc", "value": "no binding (tested: 10 μg/mL)"}, {"measurement": "binding result", "setting": "rat CD47 (ECD)-Fc", "value": "no binding (tested: 10 μg/mL)"}]}, {"binder": "HuNb1-biotin (VHH, as the VHH of m1) VHH: QVQLQESGGGLVQPGGSLRLSCAASGYAYTSDCMGWFRQTPGKGLEGVALIYTPGNSTNYADSVKGRFTISQDNSKSTVYLQMNSLRAEDTAMYYCAARRGACSLRLPFFYWGQGTLVTVSS", "values": [{"measurement": "binding result", "setting": "[1]", "value": "binds"}]}]}
